Measurements as given in the nanobody polyreactivity screen of Harvey et al. (2022).

Experiment: yeast display, Sf9 membrane polyspecificity reagent, FACS + sequencing; frameworks hold sequencing errors
Method in brief: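 Genes from sorted yeast were amplified by colony PCR, read by MiSeq 2 × 250 sequencing and filtered on CDR length. These cells carried a synthetic nanobody library in Saccharomyces cerevisiae BJ5465 and were sorted by FACS into low and high (top ~1%) gates on anti-HA and streptavidin fluorescence. Polyreactivity is labelled according to the gate of origin.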

Question: Which “polyreactivity (PSR sort gate)” value does the source give for “QDQLVESGGVLVQAGGSLRLSCAASGRIFVYNAMGWYRQAPGKERELVATIDYSGGSTYYADSVKGRFTNSRDYAKNTVYLQINSLKPEDPAVYYCNADWSVYAYDSWGQGTQVTVSS” here?
Answer: low polyreactivity

Question: With “QDQLVESGPGLVQAGGSLRLSCAPSGRIFTVYAMGWYRQAPGKERELVAAIDWSDGSTYYADSVKGRFTISRDNAKNTVYLHMNSLKPEATAVYYCAAETYWVVEYDYWGQGTQVTVSS” as the sequence, how does the “polyreactivity (PSR sort gate)” value read?
Answer: high polyreactivity

Question: With “QDQLVESGRGLVQAGGSLRLSCAASASIFTKYTMVWYRQAPGKERELVAAITLRGTSTYYADSVKGRFTISRDNAKKTVYLQKNSLKPEDTAVYYCNILYSWVVAYDYWGQGTQVTLSS” as the sequence, how does the “polyreactivity (PSR sort gate)” value read?
Answer: high polyreactivity

Question: Which “polyreactivity (PSR sort gate)” value does the source give for “QDQLVESGRGLVQAGGSLRLSCAASGSTFSYYAIGWYRQAPGKERELVAAISRRGGSTYYADSVKGRFTISRDNAKNSVYLQMNSLKPEDTAVYYCNRVTYTGYDSWGQGTQVTVSS” here?
Answer: high polyreactivity

Question: Which “polyreactivity (PSR sort gate)” value does the source give for “QDQLVESGVGIVQAGRSLRLSCAASGFTFSGYAMGWDRQAPGKERELVAAINWRGDSTYYADSVKGRFTISRDNAKNTVYLQMNSLKPEDTAVYYCNVVLGPQRYSTDYGYWGQGTQVTVSS” here?
Answer: high polyreactivity

Question: Which “polyreactivity (PSR sort gate)” value does the source give for “QDQLVESGVGLVQAGGSHRLSSAASGSTFRRNTMGWYRQAPGKERELVAAISNGGRTYYADSVKGRFTISRDNAKNTVYLQMNRLKPEDTAVYYCNKVRSPWYDSWGQGTQVTVSS” here?
Answer: high polyreactivity

Question: Which “polyreactivity (PSR sort gate)” value does the source give for “QDQLVESGVGLVQAGGSLRLSCAASGRTFYYNTMGWYRPAPGKETEFVATITSTHDTNYADSVKGRFTISRDNAKNSVYLQMNSLKPEDTAVYYCAKGYLNYGRDWDFDYWGHGTQVTVSS” here?
Answer: low polyreactivity

Question: For “QDQLVESGVGLVQAGGSLRLSCAASGSIFHGNAMGWYRQAPGKERELVATISSGGSTYYADSVKGRFTISRDNAKNTVYLQMNSLKPEDTAVYYCAAERFWPYKSYYWGQGTQVTVSS”, which “polyreactivity (PSR sort gate)” value is on record?
Answer: low polyreactivity

Question: For “QDQLVESGVGLVQEGGSLRLSCAASGSILKRYVMGWYRQAPGKERELVAAISSGSRTYYADSVKGRFTISRDNAKNTVYLQMNSLKPEDTAVYYCAADLTYKYHYDYWGQGTQVTVSS”, which “polyreactivity (PSR sort gate)” value is on record?
Answer: high polyreactivity

Question: With “QDQLVESRAGLVQAGGSLRLSCADTGNIFDFNAIGSYRQAPGKERELVAAISQRGTRTYYADSVKGRFTISRDNAKNTVYLQMKSLKPDYTAVYYCNRGGWRQYDSWGQGTQVTVSS” as the sequence, how does the “polyreactivity (PSR sort gate)” value read?
Answer: high polyreactivity

Question: With “QDQLVESVGGLDQAGGSLRLSCAASGLIFQSYVMGWYRQAPGKERELVAAISSSVGSTHYADSVKGRFTISRDNAKNTVYLQMNSLKPEDTAVYYCAVEDYYADSGVEYDYWGQGTQVTVSS” as the sequence, how does the “polyreactivity (PSR sort gate)” value read?
Answer: low polyreactivity

Question: For “QDQLVESVGGLVQAGGSLRLSCAASGRTLVRYVMGWYRQAPGKERELVAAISARTGSTYYADSVKGRFTISRDNAKNTVYLQMNSLKPEDTAVYYCATKFSSYDTRVSYDYWGQGTQVTVSS”, which “polyreactivity (PSR sort gate)” value is on record?
Answer: low polyreactivity

Question: Which “polyreactivity (PSR sort gate)” value does the source give for “QDQLVESVVGLVQAGGSLSLSCDSSARTFWYNAMGCYRQAPGKEREFVAAISSSGGTTYYADSVKGRFTISRDNAKNTVYLQMNSLKPEDTAVYYCAKRFSLLSTVRWGRYNYWGQGTQVTVSS” here?
Answer: high polyreactivity

Question: For “QDQLVESWGGLVQAGGSLRLICASSGSNIGYNAMGWYRPAPVKERELVAAISYSGGSTYYADSVKGRFTISRDNAKNTVYFRMNSLKPEDTAVYYCNKYIRRYLIYGSWGQGSQVTVSS”, which “polyreactivity (PSR sort gate)” value is on record?
Answer: high polyreactivity

Question: With “QDQLVESWGGLVQAVGSLRLSCAASGSTFEDYGMGWNRQAPGKERQFVAAIRYSGSSKYADSVKGRFTISRDNAKNTVFLLMKSLIPEDTAVYYCAKYGVRVGFGYSSEYFGQGTQVTVSS” as the sequence, how does the “polyreactivity (PSR sort gate)” value read?
Answer: low polyreactivity

Question: For “QDQLVETGVGLVQAGGSLLLSCAPSAITFRGYAMGWYRQAPGKEREYVAAITSGSSTYYADSVKGRFTISRDNAKNTVYLQMNSLKPEDTAVYYCAAERTKSFKLTRPGSMDYWGQGTQVTVSS”, which “polyreactivity (PSR sort gate)” value is on record?
Answer: low polyreactivity

Question: Which “polyreactivity (PSR sort gate)” value does the source give for “QDQLVQSGLGLVQAGGSLRLSCAASGITFYWYTIAWYRQATGKERELVAAISRRGGSTSYADSVKGRFTISRDNAKNTVYLQMNSLKPEDTAVYYCAKTPGWTDYDYWGQGTQVTVSS” here?
Answer: high polyreactivity

Question: Which “polyreactivity (PSR sort gate)” value does the source give for “QDQQVESGGGLVQAGGSLRLSSAASGRTFGTYALGWYRQARGNERELVAAITKSGGSTYYADSVKGRFIISRDNAKNTVYLQMNSLKPEDTAVYYCAAAVPRYRVYYWGQGTQVTVSS” here?
Answer: high polyreactivity

Question: For “QDQRVESGGGLVQAGGSLRLSCAASGRIFSWYAMGWYRQAPGQERELVAAIDSGGRTNYADSVKGRFTISRDNAKNTVYLQMNSLKPEDTAVYYCAKEGYWPRYWERFDYWGQGTQVTVSS”, which “polyreactivity (PSR sort gate)” value is on record?
Answer: low polyreactivity

Question: For “QDQRVESGGGLVQAGGSLRLSCAASGRTISVYAMGWYRQAPGKERELVAAIRTSGGITYYADSVKGRFTISRDNAKNTVYLQMNSLKPEDTAVYYCAAETFRHDSYTRYYYWGQGTQVTVSS”, which “polyreactivity (PSR sort gate)” value is on record?
Answer: high polyreactivity

Question: For “QEQHVESAGGLVQAGGSLRLSCAASASIIYKYAMGWYRQAPGKERELVAAINSGGRTYYADSVKGRFTISRDNAKNTVYLQMNSLKPEDTAVYYCNAGTYYPGRYDYWGQGTQVTVSS”, which “polyreactivity (PSR sort gate)” value is on record?
Answer: high polyreactivity

Question: With “QEQLQESGGGLGQAGGSLRLSCAASGSISSDVLMGWHRQAPGKERELVAAIGIGANTYYADSVKGRFTISRDNAKNTVYPQMNSLKPEDTAVYYCATGRYSGADNYWGQGTQVTVSS” as the sequence, how does the “polyreactivity (PSR sort gate)” value read?
Answer: high polyreactivity

Question: For “QEQLQESGGGLVQAGGSLRLSCAASGNITLDTAMGWSRQAPRKEREFVASINDGGITNYADSVKGRFTICRDNAKNSVYLQMNSLKPEDTAVFYCAARWIWRGYDYWGQGTQVTVSS”, which “polyreactivity (PSR sort gate)” value is on record?
Answer: high polyreactivity

Question: With “QEQLQESGGGLVQAGGSLRMSCAASGTIFSEANKGWYRQAPGKERELVATIGQGSTTNYADSVKGRFTISRDNAKNTVYLQMNSLKPEETAVYYCAVVTVDPVGFVYWGQGTQVTVSS” as the sequence, how does the “polyreactivity (PSR sort gate)” value read?
Answer: low polyreactivity

Question: For “QEQLQESGGGQVQAGGSLLLSCAASGNIIRYYYMGWYRQAPGKERELVAAINVGAITYYADSVKGRFSISRDNAKNTVYLPMNSLTPEDTAVYYCAVDQYSEAYYDYWGQGTQATVSS”, which “polyreactivity (PSR sort gate)” value is on record?
Answer: high polyreactivity

Question: Which “polyreactivity (PSR sort gate)” value does the source give for “QEQLQESVVCQVQAGRSLHLSCAASGNIIRYSYMGWYRQAPGNERELVAAITYGTSTNYADSVKGRFTISRDHAKNTVYLQMTSLKPEDTAVYYCAVDVNYGDPLDNWCQGTQVTVSS” here?
Answer: high polyreactivity

Question: Which “polyreactivity (PSR sort gate)” value does the source give for “QEQLVESGGGIVQAGGTLRLSGADSGSIFVKNAMGWYRQAHGKERQWVARITYSGGSTYYADSVKGRFTISRDNAKNTVYLQMNSLKPEDTAVYYCAARYWYFPQPYYPGNDYWGQGTQVTVSS” here?
Answer: high polyreactivity

Question: With “QEQLVESGGGLVQAGGSLRLSCAASGSIRYYAMGWDRQAPGKESELVATITRGGSTYYADSVKGRFTISRDNAKNTVYLQMNSLKPEDTAVYYCAARRAVRVGYYWHDISSYDYWGQGTQVTVSS” as the sequence, how does the “polyreactivity (PSR sort gate)” value read?
Answer: low polyreactivity

Question: For “QEQLVESGGGLVQAGGTLRLSCDASVSTQWYNAMGWYRQAPGKERELVATITAGGGSTYYADSVKGRFTISRDNAKNTVYLQMNSLKREDTAVYYCATRYTPAQLDYWGQGTQVTVSS”, which “polyreactivity (PSR sort gate)” value is on record?
Answer: low polyreactivity

Question: With “QEQLVETVVGLVQARGSLRLRSAASGITFRKYAMRWYRQAPGKERDFVAAITRGGRTYYADSVKGRFTISRENAKNTVYLQMNSLKPEDTAVYYCAACTVVYAGSTYLQPFDYWGQGTQVTVSS” as the sequence, how does the “polyreactivity (PSR sort gate)” value read?
Answer: high polyreactivity

Question: Which “polyreactivity (PSR sort gate)” value does the source give for “QFHLVESCGGLVQAGGSLRLSCAASGIIFSTYFMGWYIQAPGKERELVAAISSRGFSTYYADSVKGRFTISRDNAKKTVYLQMNSLIPEDTAVYYCAARYYYSRSRLYYYWGQGTQVTVSS” here?
Answer: high polyreactivity

Question: Which “polyreactivity (PSR sort gate)” value does the source give for “QFQLEESGGGLVQAGGSLRLSCAASGNIFFTNAMGRYRQAPGNERELVATITFRGTSTYYADSVKGRFTISRDNAKNTVYLQMNCLKPEDTAVYYCTARYSVFHRARVNLLGWGLYYWGQGTQVTVSS” here?
Answer: low polyreactivity

Question: For “QFQLEESGGGLVQAGGSLRLSCAASGRIFPTYTRGWYSQAPGKERVLVAGISYSGTSTSYADSVKGRFTMSRDNAKNSVYLELNSLKPEDTAVYYCAAKYYGRSFYYGYDYWGQGTQVTVSS”, which “polyreactivity (PSR sort gate)” value is on record?
Answer: low polyreactivity

Question: With “QFQLEESGRGLVQAGGSLRLSCAASGSTLSYNAMGCYRQAPGKERELVAAISGRGGSTSYADSVKGRFTITRDNAKKTVYLQMNRLKPVDTAVYYCIAGKYSSSAALYDYWGQGTQVTVSS” as the sequence, how does the “polyreactivity (PSR sort gate)” value read?
Answer: high polyreactivity

Question: With “QFQLEESVGGLVQAGGSLRLSCAASGFTFKSYAMGWYRQATVNVREFVARITYSGGGTYYADSVKGRFTISRDNAKNTVYLLMNSLKPEDTAVYYCARPFNRYLGLTRNGYTSDYWGQGTQVTVSS” as the sequence, how does the “polyreactivity (PSR sort gate)” value read?
Answer: high polyreactivity

Question: Which “polyreactivity (PSR sort gate)” value does the source give for “QFQLGESGGGLVQAGGSLRLSCAACGSTFYLYAMGWYRQAPGKDRELVAAISKSCGSTYYADSVKGRFTISRDNAKNTVYLQMNSLKPEVTAVYYCATRWIKGRKMDYWGQGTQVTVSS” here?
Answer: high polyreactivity

Question: Which “polyreactivity (PSR sort gate)” value does the source give for “QFQLGESGGGLVQAGGSLRLSCAASGYIFKKNAMGWYRQAPGYERELVAVISARGGRTYYADSVKGRFTISRDKGKNTVYLQMNSLKPEDTAVYYCAAVSLGITYDYWGQGTQVTVSS” here?
Answer: low polyreactivity

Question: Which “polyreactivity (PSR sort gate)” value does the source give for “QFQLVESCGGLVQAGGSLRLSCAASGSIFYYYVMGWYRQAPGKEREFVAAISWRGDSTYYADSVKGRFTISRDNAKNTVYLQMNSLKPEDTAVYYCNADYPWSVVGYDYLGQGTQVTVSS” here?
Answer: low polyreactivity

Question: For “QFQLVESGGGIVQAGGSLRLSCAASGRTIYQYAMGWYRESPANERELVAAISRSGTSTYYADSVKGRFTISRDNAKNTVYLQMNSLKPEDTAVYFCAARYVSKYNYPSPEMYYWGQGTKVTVSS”, which “polyreactivity (PSR sort gate)” value is on record?
Answer: high polyreactivity

Question: With “QFQLVESGGGLVHAGGSLRLICAASGRTFVYNAMGWYRQAPGKERDLVAAISFGGGNTYYADSVKGRFTISRDNAKNTVYLQMNCLKPEDTAVYYCAKAYIGYWGASCYYAYDYWGQGTQVTVSS” as the sequence, how does the “polyreactivity (PSR sort gate)” value read?
Answer: low polyreactivity

Question: For “QFQLVESGGGLVQAGGRLRLSCAASGYTFYSYAMGWSRQAPGKERELVASITRRVGGTYYADSVKGRFTISRDNAKKTVYLQMNSLKPEDTAVYYCAAGYYHKKSSTDIEKYWGQGTQLTVSS”, which “polyreactivity (PSR sort gate)” value is on record?
Answer: low polyreactivity
